Results taken from patent US20090288225A1, “Novel Aromatic Acyltransferase Genes” (Aomori Prefecture, priority 2006, published 2009).

Tests used:
[1] = UDP-glucose:hydroxycinnamate 1-O-glucosyltransferase activity of recombinant proteins from E. coli; type: biochemical; settings: against all four types of hydroxycinnamic acid used
Experimental: The transformed E. coli was shaking-cultured overnight in 3 ml of LB medium containing 50 μg/ml kanamycin and 34 μg/ml chloramphenicol. This culture broth (500 μl) was inoculated into LB medium (50 ml) and shaking-cultured until absorbance at 600 nm reached 0.4. Then, isopropyl-β-D-thiogalactoside (IPTG) was added to give a final concentration of 0.4 mM. The cells were shaking-cultured at 25° C. for 16 hr and then harvested by refrigerated centrifugation (8000 rpm, 4° C., 20 min). CtGT11-4 protein was partially purified from the cells using Ni-NTA mini-column according to the method recommended by the manufacturer. […]
For measuring enzyme activity, a 30 μl reaction solution containing 100 mM potassium phosphate buffer (pH 7.4), 30 pmole of UDP-glucose, 30 pmole of hydroxycinnamic acid and 15 μl of recombinant protein solution was reacted at 30° C. […] The enzyme reaction products were analyzed by reversed-phase high performance liquid chromatography (Shiseido NanoSpace system) using Develosil C30-UG-5 (1.5 i.d.×250 mm). […] The eluted materials were detected with a PDA detector, and the resultant data were analyzed to thereby quantitatively determine 1-O-acyl-β-D-glucose. […]
LeGT13-20 and LeGT13-30 genes were expressed using pET30Ek/LIC System (Novagen). […] Resultant several clones were analyzed to confirm the nucleotide sequences thereof, and then transformed into E. coli BL21-CodonPlus(DE3)-RP. […]

[2] = Acyltransferase activity of purified 3′AT, substrates preternatin C5 and 1-O-p-coumaroyl-β-D-glucose; type: biochemical, butterfly pea (Clitoria ternatea); settings: 3′AT activity
Experimental: A reaction solution (20 μl) containing 100 mM phosphate buffer (pH 6.5), 0.4 mM anthocyanin (4 μl), 0.5 mM 1-O-acyl-β-D-glucose (4 μl) and an enzyme solution (8 μl) was reacted at 30° C. The reaction was terminated by adding 4 μl of 1M aqueous hydrochloric acid solution. After addition of 24 μl of 5% acetonitrile containing 0.05 M TFA, the reaction solution was filtered with Millex-LH filter (Millipore) and then analyzed by HPLC by feeding a 10 μl aliquot.
HPLC analysis of anthocyanin acyltransferase reaction products were performed with Develosil ODS-UG-5 column (3.0 i.d.×250 mm; Nomura Chemical) at a column temperature of 35° C. Against an initial solvent that was 0.05 M trifluoroacetate (TFA)-containing 5% acetonitrile (MeCN) aqueous solution, 0.05 M TFA-containing 40% MeCN was added with a linear concentration gradient from 14 to 86% (20 min) and the reaction products were eluted at a flow rate of 0.5 ml/min. The reaction products were detected with PDA and their molecular weights were confirmed by LC-MS/MS. […]

B1: LeGT13-30: lobelia 1-O-acyl-β-D-glucose synthase, 486 amino acid residues, SEQ ID NO: 18 (protein)
chain: MGSLQGTTTVENLTHVFLVSFPGQGHVNPLLRLGKILASKGLLVTFSAPEMVGEIIKGANKYISDDELTPIGDGMIRFEFFSDSLGNTKEDNALRGNMDLYMPQLATFAKKSLSDILVKHQHHGRPVACLINNPFIPWISELAEEFNIPSAVLWVQSCASFSAYYHYHHNLVPFPTENEPERDVQLPSMPLLKYDEIPGFLLPSSPYGFLRRAILGQFKLLSKPICILVESFQELEDDCINYLSTLCPIKPIGPLFINPNVKTGSSIRGDFMKVEDCIDWLNTRADSSVVYISFGSIVYVKQEQITEIARGLADSGLSFLWAFKQPGVDMGLKPPSLPDGFLEEVKGRGKVVEWCSQEAVLGHPAVSCFMSHCGWNSTMEALSSGVPVAAFPIWGDQVTDAKFLVDEFKVGIRMCRGEADINKKVVPREEIARCLLAATSGPKAEELRRNALKWKKAAADSVGAGGSSDRNLEEFVGSIKKGVIGH
modifications: Lobelia erinus cv.Riviera Midnight Blue; Amino acid sequence of UDP-glucose hydroxycinnamic acid 1-O-glucosyltransferase
glucosyltransferase activity [1]: glucosyltransferase activity was confirmed

B2: 3′AT protein: acyltransferase purified from butterfly pea petals, transfers aromatic acyl group to glucosyl group at position 3′ of anthocyanin (after Mono Q) (protein)
chain: GTIVEFLPGFDGPLPFVLETGYVGVGEGEDVQVFYYFVESENNPNEDPLMLWLTGGPGCSAFSGLALEIGPLIFKREEYNGGLPNLILRPHSWTKVSSIIFVDLPVSTGFTYARTDAAAQRSDWTLVHHAHEFLRKWLIDHPKFLQNELYIGGDSYSGIPIPVIVQEISQENEKGIQPWINLQGYILGNAITTRREKGYSIPFAHGMALISDELYESLRKNCKGEYLNVDPENVLCSRDIDSYSKATSRISFAHILERTCNSGDIKTSLRRSTIQRHHTKKFLNTNLKLPPLTCRTYANFQCGLWANDDNVRSALHIHKGSIGEWHRCSIRLPFTSDIPNSFEYHVNLSRKGYYRSLIYSGDHDMMVPFLGTQAWIRSLNYSIVDDWRPWNTNGQVAGYTRTYSNRMTYATIKGGGHTAPEFKPEECFAMYSRWISKRPLYENNTMSSYTNLASIL
specific activity [2]: 1492.6 pkat/mg
